Data published in the nanobody polyreactivity screen of Harvey et al. (2022).

Assay: yeast display, Sf9 membrane polyspecificity reagent, FACS + sequencing; frameworks hold sequencing errors
In short: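 A synthetic nanobody library was expressed on Saccharomyces cerevisiae BJ5465 by galactose induction for 36–48 hours. The library was stained for 1 hour at 4 °C with 10% biotinylated, detergent-solubilized Sf9 membrane reagent and enriched with streptavidin microbeads before FACS. Low and high (top ~1%) gates were set on anti-HA fluorescence for expression and streptavidin fluorescence for reagent binding, and each polyreactivity label reflects the gate of origin.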

| Sequence | polyreactivity (PSR sort gate) |
| --- | --- |
| QVQLVESRGGLVQAGGSLRLSCAASGRTFGRYAMGWYRQAPGKERELVAAINRGGSTKYADSVKGRFTISRDNAKNTVYLQMNSLKPEDTAVYYCAKDRHPALHYDYWGQGTQVTVSS | low polyreactivity |
| QVHLVESGGGLVQAGGSLRLSCAASGSIFGPYVMGWYRQAPGKEREFVAAIRGSGGSTYYADTVKGRFTISRDNAKNTVYLQMTSLKPEDTAVYYCNASLKYTLYYYWGQGTQVTVSS | high polyreactivity |
| QVQLVESGGGLVQAGGSLRLSCAASGRIFSYNTMGWYRQAPGKERELVAAISGGGTTYYADSVKGRFTISRDNAKNTVYLQMNSLKPEDTAVYYCNAEYYGYSWRRTKYGYWGQGTQVTVSS | high polyreactivity |
| QVQLVESGGGLVQAGGSLRLSCAASGITSARYAMGWYRQAPGKERELVAAITLSGVRTYYADSVKGRFTISRDQAKNTVYLQMNSLKPEDTAVYYCNTVYYSKWGQGTQVTVSS | low polyreactivity |
| QVQLVESGGGLVQAGGCLRLSCAASGSTFRYYAMGWYRQAPGKERELVAAIYGGGTTYYADSVKGRFTISRDNAKNTVYLQLNSLKPEDTAVYYCAASILFSYYGRDDYWGQGTQVTVSS | low polyreactivity |
| QVQLVESVGVLVQAGGSLRLSCAASGSTFSSYAMGWYRPAPGKERELVAVISSRGTSTSYADSVKGRFTISRDNAKNTVYLQMNSLKQEDTAVYYCAASRFRWVQRYDYWGQGTQVTVSS | high polyreactivity |
| QGQLVESWGGLVQAGGSLRLSCAASGRIFYGYVMGWYREAPGKERELVAAINHSGTSTYYADSVKGRFTISRDIAKNTVYLQMNIMKPEDTAVYYCAADQVGWTYDYWGQGTQVTVSS | low polyreactivity |
| QVQLVESGGGLVQAGGSLRLSCAASGRIFGGYAMGWYRQAPGKERELVPSITGRATSTYYADSVKGRFTISRDNAKNTVYLQMNRLKPEDTAVYYFNALYRKYRNQWYISNYGYYYWGQGTQVTVSS | low polyreactivity |
| QVQLQESGGGLVQAGGSLRLSGAASGSISSRDAMGWYRQAPGKEREFVATIASGTTTYYADSVKGSFTISRDNAENTVYLQTNSLKPEDTAVYYCAAPTIQIYPFYYWGQGTQVTVSS | high polyreactivity |
| QVQLVESGGGLVQAGGSLRLSCAASGSIFSGYAMGWYRQAPGKERELVAAISRRGTSTYYADSVKGRFTISRDNAKNTVYLQMNSLKPEDTAVYYCAATYGGRQSYGGFDYWGQGTQVTVSS | high polyreactivity |
| QVQLVESGGGLVQAGGSLRLRCAASGSIFWPYAMGWYRQAPGKERELVAGISSGGSTYYADSVKGRFTISRDNAKNTDYLQMNSLKPEDTAVYYCAARWQWLNGYYYWGQGSQVTVSS | high polyreactivity |
| QVQLVESGGGLVQAGGSLRLSCAASGSTFGRYAMGWYRQAPGKEREFVAAISCSGGSTYYADSVKGRFTISRDNAKNTVYLQMNSLNPEDTAVYYWARYSWRGLAEFESWGQGTQVTVSS | low polyreactivity |
| QVHLVESGGCLVQAGGSLRLICAASGRIFDGNTMGWYRQEPGKERELVAAISGVGSTDYADSVKGRYTISRDNAKNTVYFQINSLKPEDTAVYYCAATTGPVPLKGDYWGQGTQVTVSS | low polyreactivity |
| QVQLVESGGGLVQAGGSLRLSCAASGSTLPGFTMGWYRHAPGKERELVAAISWSGGSTSYADSVKGRFTISRDNAKNTVYLQMNSLKPEDTAVYYCDVDRFWRPVRSGSTYDYWGQGTQVTVSS | low polyreactivity |
| QVQLVESGGGLVQAGGSLRLSCAASGRIFRINAMGWYRQAPGKERELVASITSRAGSTYYADSVKGRFTISRDNAKNTVYLQMNSLKPEDTAVYYCAAASRRGYYYWGQGTQVTVSS | high polyreactivity |
| QVQLVESGGGLVQAGGSLRLSCAASGRIFYLNAMGWYRQAPGKERELVAAISSRGSRTYYADSVKGRFTISRDNAKNTVYLQMNSLKPEDTAVYYCNVRQRKQPDTDDYWGQGTQVTVSS | high polyreactivity |
| QVQLVESGGGLVQAGGSLRLSCAAAGRTFFKYAMGWYRQAPGKERELVATITSSGGITYADSVKGRFTISRDNAKNTVYLQMNRLKPEDTAVYYCNARVWVTHYSELNYWVQGTQVTVSS | low polyreactivity |
| QVQLVESGGGLVQAGGSLRLSCAASGFTFYGYAMGWYRQAPGKERELVAAISTRGSRTYYADSVKGRFTISRDNSKNTVYLQMNSLKPEDTAVYYCAARKKHSGYGRGNYWGQGTQVTVSS | high polyreactivity |
| QVQLQESGGGLVLAGGSLRLSCSASGNISVYGSMGWYRQAPGKEREFVATIDPGTNTNYADSMKDRFTISRDNAKNTVYLQMNSLKPEDTAVYYCAVEAGSDWPYRYWGQGTQVTVSS | low polyreactivity |
| QVQLVESGGGLVQAGGSLRLICAASGRTFKRYVIGWYRQAPRKERELVATITRGGSTTYADSVKGRFTISRDNAKNTVFLQMNSLKPEDTAVYYCIADLYQVYLSDYWGQGTQVTVSS | high polyreactivity |
| QVQLVESGGGLVQAGGSLRLSCAASGSTFHRYALGWYRQAPGKERELVATITSRGGITYYADSVKGRFTISRDNAKNTVYLQMNSLKPEDTAVYYCYRYDYWGQGTQVTVSS | low polyreactivity |
| QVQLVESGGGLVQAGGSLRLSCAASGRTFYNYAMGWYRQAPGKERELVAAIDWGSDSTYYADSVKGRFTISRDNAKNTVYLQMNSLKPEDTAVYYCAAYLVSVNSRTYDYWGQGTQVTVSS | low polyreactivity |

| Sequence | polyreactivity (PSR sort gate) |
| --- | --- |
| QVQLVESGGGLVQAGGSLRLSCAASGFIFQTNHMGWYRQAPGKERELVAAISSGDSTYYADSVKGRFTISRDNAKNTVYLQMNSLIPEDTAVYYCAADVLGTTTVGGFNYWGQGTQVTVSS | low polyreactivity |
| QVQLVESGGGLVQAGGSLRLSCAASGGIFKRYAMGWYRQEPGKERELVAAISGRGGGTYYADSVKGRFTISRDNAKNTDYLQMNSLKPEDTAVYYCNARLSWSAFGYWGQGTQVTVSS | high polyreactivity |
| QFQLVESGGGLVQAGGSLRVSSAASGITLPYYAMGWYRQAPGKDRELVAGISSRGGSTYYADSVKGRFTISRDNAKNTVYLQMNSLKPEDTAVYYCAAKVASTRLGPAYGYWGQGTQVTVSS | high polyreactivity |
| QVQLVESGGGLVQAGGSLRLSCAASGSTFNFYAMGWARQAPGKERELVAAIRQSSGRTYYADSVKGRFTISRDNAKNTVYLQMNSLKPEDTAVYYCNARVPRYNGGSTMEYWGQGTQVTVSS | high polyreactivity |
| QVQLVESGGGLVQAGGSLRLSCAASGRTFGYYGMGWYRQAPGKERELVAAITGSGGSTYYADSVKGRFTISRDNAKNTVYLQMNSLKPEDTAVYYCGATDLSRWTLYDYCGQGTQVTVSS | high polyreactivity |
| QVQLVESGGGLVQAGGSLRLSFAASGRIFAYYVMGWYRQAPGKARELVAAITGSGGSTYYADSVKGRFTISRDNAKNTVYLQMNSLKPEDTAVYYCNADFVWRGDYWGQGTQVTVSS | low polyreactivity |
| QFQLVESGGGLVQAGGSLRLSCAASGIIFAGNAMGWYRQAPGKERELVAVITSVGSTYYADSVTGRFTISRDNAKNTVYLQMNSLKPEDTAVYYCNAVSWWRYDYCGQGTQVTVSS | high polyreactivity |
| QVQLVESGGGLVQAGGSLRLSCAASGRIFYKYALGGYRQAPGKERELVAAISYSGGSTYYADSVKGRFTISRDNAKNTVYLQMKSLKPEDNAVYYCNAKPPFGVRSWGDYWGQGTQVTVSS | low polyreactivity |
| QVQLVESGGGLVQAGGSLRLSCAASGLTFRKYAMGWYRPAPGKEREWVAAITRGGSTNYADSVKGRFTISRDNAKNTVYLQMNSLKPEDTAVYYCAAQYTYRFPYPGYATTHDYWGQGTQVTVSS | high polyreactivity |
| QVQLVESGGGLVQAGGSLRLSCAASGIIFVDYVMGWYRQAPGKERELVAAITYTGGSTYYADSVKGRFTISRDNAKNTVYLQMNSLKPEDTAVYYCAARRNDRFFPAYYYWGQGTQVTVSS | high polyreactivity |
| QVQLVESGGGLVQAGGSLRLSCAASGFIFYAYAMGWYRQAPGKERELVAAITRSGGSTYYADSVKGRFTISRDNAKNTVYLQMNSLKPEDTAVYYCAARQRTKLGYWGQGTQVTVSS | high polyreactivity |
| QVQLVESGGGLVQAGGSLRLSCAASGSTFRYYAMGWYRQAPGKERELVAVISASGGTTYYADSVKGRFTISRDNAKNTVYLQMNSLKPEDTAVYYCAAREGWGFYYWGQGTQVTVSS | high polyreactivity |
| QVQLVESGGGLVQAGRSLRLSCAASGSTFRQNAMGWYRQAPGKERELVAGITFSSGSTYYADSVKGRFTISRDIAKNTLYLQMNSLKPEDTAVYYCAVRNASKNRKYYYWGQGTQVTVSS | high polyreactivity |
| QVQLVESGGGLVQAGGSLRLSCAASGFTLWLNAMGWYRQAPGKERELVAAITTSDDGTYYADSVKGRFTISRDTAKNTVYLQMNSLKPEDTAVYYCAADYYSVLYDYWGQGTQVTVSS | low polyreactivity |
| QVKLVESGGGLVQAGGSLRLSCAASGRILGYYAMGWYRPAPGKERELVAAINRGGRTYYADSVKGRFTISRDNAKNTVYLEMYSLKPEDTAVYYCAAVLYNQWALVYWFGYNYWGQGTQVSVSS | high polyreactivity |
| QVQLVESGGGLVQAGGSLRLSCAASGRTFTRYAMGWYRQAPGKERELVAAISWSGGSTYYADSVKGRFTISRDNAKNTVYLQMNSLKPEDTAVYYCNAYYYYPEFNYWGQGTQVTVSS | high polyreactivity |
| QVQLVESGGGLVQAGGSLRLSCAASGITLLYNAMGWYRQAPGKERELVAGITGRGGSTYYADSVKGRFTISRDNAKNTVYLQMNSLKPEDNAVYYCAATTDYRYVGRIVIRDDHWGHGTQVTVSS | low polyreactivity |
| QVQLHESGGGLVQAGGSLRMSCAASGTISVTYNKGWYRQAPGKEREFVAGNSTGATTNYADSVKGRFTISRDNAKNCVYLQMNSLKPDDTAVYYCAAHIYRQDHFYYWGQGTQVTVSS | low polyreactivity |
| QVQLVESGGGLVQAGGSLRLSCAASGSTFLQNAMGWYRQAPGKEREFVAAISYTGANTYYADSVKGRFTISRDNAKNTVYLQMNSLKPEDTAVYYCAAYARGVRRYRRYDYWGQGTQVTVSS | high polyreactivity |
| QVQLVESGGGLVQAGGSLRLTCAASGNIFYTYAMGWYRQPPGKERELVAGLSSDGSTTYADSVKGRFTISRDNAKNTVYLQMNSLNPEDTAVYYCPADITGILWYGYYYWGQGTQVTVSS | low polyreactivity |
| QVQLVESGGGLVQAGGSLRLSCAASGSIFGRYVMGWYRQAPGKEREFVAAITYSGSSTYYADSVKGRFTISRDNAKNTVYLQMNSLKPEDTAVYYCNTYPRSFYWMGYWGQGTQVTVSS | high polyreactivity |
